Where a chain is given by its changes, count along the chain named.
B1: bsIgG1-huCD3-H1L1-FEALxCD20-7D8-FEAR (bispecific antibody)
heavy 1: not shown
light: not shown
heavy 2: EVQLVESGGGLVQPDRSLRLSCAASGFTFHDYAMHWVRQAPGKGLEWVSTISWNSGTIGYADSVKGRFTISRDNAKNSLYLQMNSLRAEDTALYYCAKDIQYGNYYYGMDVWGQGTTVTVSSASTKGPSVFPLAPSSKSTSGGTAALGCLVKDYFPEPVTVSWNSGALTSGVHTFPAVLQSSGLYSLSSVVTVPSSSLGTQTYICNVNHKPSNTKVDKRVEPKSCDKTHTCPPCPAPEFEGGPSVFLFPPKPKDTLMISRTPEVTCVVVAVSHEDPEVKFNWYVDGVEVHNAKTKPREEQYNSTYRVVSVLTVLHQDWLNGKEYKCKVSNKALPAPIEKTISKAKGQPREPQVYTLPPSREEMTKNQVSLTCLVKGFYPSDIAVEWESNGQPENNYKTTPPVLDSDGSFFLYSRLTVDKSRWQQGNVFSCSVMHEALHNHYTQKSLSLSPGK
VL: EIVLTQSPATLSLSPGERATLSCRASQSVSSYLAWYQQKPGQAPRLLIYDASNRATGIPARFSGSGSGTDFTLTISSLEPEDFAVYYCQQRSNWPITFGQGTRLEIK
notes: Made by 2-MEA-induced Fab-arm exchange; also called CD3xCD20; CD3x7D8
B2: bsIgG1-huCD3-H1L1-FEALxCD20-2F2-FEAR (bispecific antibody)
heavy 1: not shown
light: not shown
heavy 2: B1 heavy 2 with D15G, H30N, T57S, N77K
VL: B1 VL
notes: also called huCD3x2F2
B3: bsIgG1-huCLB-T3/4-FEALxCD20-11B8-FEAR (bispecific antibody)
heavy 1: EVQLVESGGGLVKPGGSLRLSCAASGFTFSSYGMFWVRQAPGKGLEWVATISRYSRYIYYPDSVKGRFTISRDNAKNSLYLQMNSLRAEDTAVYYCARRPLYGSSPDYWGQGTLVTVSSASTKGPSVFPLAPSSKSTSGGTAALGCLVKDYFPEPVTVSWNSGALTSGVHTFPAVLQSSGLYSLSSVVTVPSSSLGTQTYICNVNHKPSNTKVDKRVEPKSCDKTHTCPPCPAPEFEGGPSVFLFPPKPKDTLMISRTPEVTCVVVAVSHEDPEVKFNWYVDGVEVHNAKTKPREEQYNSTYRVVSVLTVLHQDWLNGKEYKCKVSNKALPAPIEKTISKAKGQPREPQVYTLPPSREEMTKNQVSLTCLVKGFYPSDIAVEWESNGQPENNYKTTPPVLDSDGSFLLYSKLTVDKSRWQQGNVFSCSVMHEALHNHYTQKSLSLSPGK
VL 1: EIVLTQSPATLSLSPGERATLSCSASSSVTYVHWYQQKPGQAPRLLIYDTSKLASGIPARFSGSGSGTDFTLTISSLEPEDFAVYYCFQGSGYPLTFGSGTKLEMR
heavy 2: EVQLVQSGGGLVHPGGSLRLSCTGSGFTFSYHAMHWVRQAPGKGLEWVSIIGTGGVTYYADSVKGRFTISRDNVKNSLYLQMNSLRAEDMAVYYCARDYYGAGSFYDGLYGMDVWGQGTTVTVSSASTKGPSVFPLAPSSKSTSGGTAALGCLVKDYFPEPVTVSWNSGALTSGVHTFPAVLQSSGLYSLSSVVTVPSSSLGTQTYICNVNHKPSNTKVDKRVEPKSCDKTHTCPPCPAPEFEGGPSVFLFPPKPKDTLMISRTPEVTCVVVAVSHEDPEVKFNWYVDGVEVHNAKTKPREEQYNSTYRVVSVLTVLHQDWLNGKEYKCKVSNKALPAPIEKTISKAKGQPREPQVYTLPPSREEMTKNQVSLTCLVKGFYPSDIAVEWESNGQPENNYKTTPPVLDSDGSFFLYSRLTVDKSRWQQGNVFSCSVMHEALHNHYTQKSLSLSPGK
VL 2: B1 VL with N93D, I96L, Q100G, R103K, L104V
notes: also called huCLB-T3/4x11B8; bsIgG1-huCLB-3/4-FEALxCD20-11B8-FEAR
B4: bsIgG1-huCD3-H1L1-FEALxCD20-11B8-FEAR (bispecific antibody)
heavy 1: not shown
light: not shown
heavy 2: B3 heavy 2
VL: B1 VL with N93D, I96L, Q100G, R103K, L104V
notes: also called CD3x11B8; huCD3x11B8

Molecular target: T1, CD20 KDD mutant (human, UniProt P11836 1-297)
T1 construct: whole, on cells; Transiently expressed in HEK293F cells; also called T159K/N163D/N166D
T1 sequence (looked up): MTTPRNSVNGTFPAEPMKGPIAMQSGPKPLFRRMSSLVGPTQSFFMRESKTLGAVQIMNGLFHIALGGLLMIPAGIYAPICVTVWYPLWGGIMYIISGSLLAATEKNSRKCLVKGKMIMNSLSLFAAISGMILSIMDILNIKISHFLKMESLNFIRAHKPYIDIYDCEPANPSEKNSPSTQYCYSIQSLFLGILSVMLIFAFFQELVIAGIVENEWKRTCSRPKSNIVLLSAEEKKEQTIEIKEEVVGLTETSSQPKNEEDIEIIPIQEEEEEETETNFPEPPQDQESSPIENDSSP
Assay: flow cytometry, HEK293F cells expressing CD20 KDD mutant
Description: (§1) PCR was performed on a Tgradient Thermocycler 96 (Biometra) using a 35 cycle program of: +95° C. for 15 min, followed by 35 cycles of: +94° C. for 30 sec, anneal: 55° C. for 30 sec and extension: +72° C. for 2 min, followed by a final extension step at 72° C. for 10 min and subsequent storage at 4° C. The completed reactions were analyzed by agarose gel electrophoresis. See Table 11 for details of primer pairs used for colony PCR. DNA sequencing: Plasmid DNA samples were send to AGOWA (Berlin, Germany) for sequence analysis. Sequences were analyzed using the VectorNTI software package (Informax, Frederick, Md., USA).
(§2) Mutagenesis: The mutagenesis was performed, using the QuikChange® XL Site-Directed Mutagenesis kit (Cat 200517-5, Lot 1120630, Stratagene Europe) according to the manufacturer's instructions. Mutagenesis reactions were concentrated using ethanol precipitation and transformed into either oneshot DH5α-TIR competent E. coli cells or electroporated into ElectroTen-Blue® Electroporation-Competent Cells. Colonies were checked by colony PCR and restriction digestion prior to transfection. […] Anti-CD20 Antibody binding: HEK293F cells were taken up in staining buffer (PBS supplemented with 0.1% BSA and 0.02% NaN₃) and added to round bottom plates (1-3×10⁵/well in 100 μL). […] After washing twice in staining buffer, cells were incubated in 50 μL secondary antibody at 4° C. for 30 min. As a secondary antibody, R-Phycoerythrin (PE)-conjugated goat-anti-human IgG F(ab′)₂ was used, as described supra. Next, cells were washed once in staining buffer, re-suspended in 150 μL staining buffer and analyzed on a flow cytometer (FACSCanto-720, Becton Dickinson, San Diego, Calif., USA) and 10,000 events per sample were acquired at high flow rate. Binding curves were analyzed using non-linear regression (sigmoidal dose-response with variable slope) using GraphPad Prism V75.04 software (GraphPad Software, San Diego, Calif., USA).

Binder | binding result
B1 | no binding (tested: 0.0015-10 µg/mL)
B2 | no binding (tested: 0.0015-10 µg/mL)

Molecular target: T2, human CD3 (human, UniProt P07766 22-207)
T2 construct: CD3 as part of the TCR complex on Jurkat cells or human T cells; also called human CD3ε (epsilon)
Assay: flow cytometry on Jurkat cells (CD3-positive, CD20-negative); PE-conjugated goat anti-human IgG F(ab')2; median FI (PE)
Description: In addition to the non-activating mutations, L234F, L235E, D265A, on both arms, the bispecific antibody contained an F405L mutation on one arm and a K409R mutation on the other arm.
Cells (1×10⁵ cells/well) were incubated in polystyrene 96-well round-bottom plates (Greiner bio-one, cat. no. 650101) with serial dilutions of antibodies (range 0.041 to 30 μg/mL in 3-fold dilution steps [A-E] and 0.00061 to 10 μg/mL in 4-fold dilution steps [F-I]) in 100 μL PBS/0.1% BSA/0.02% azide (from here designated as staining buffer) at 4° C. for 30 min.
After washing twice in staining buffer, cells were incubated in 50 μL secondary antibody at 4° C. for 30 min. As a secondary antibody, R-Phycoerythrin (PE)-conjugated goat-anti-human IgG F(ab′)₂ (cat. no. 109-116-098, Jackson ImmunoResearch Laboratories, Inc., West Grove, Pa.) diluted 1:200 in staining buffer, was used for all experiments. Next, cells were washed twice in staining buffer, re-suspended in 30 μL staining buffer and analyzed on an iQue screener (Intellicyt Corporation, USA) (for FIG. 1A-E) or re-suspended in 100 μL staining buffer and analyzed on a FACSCANTOII (BD Biosciences) (FIG. 1F-I). Binding curves were analyzed using non-linear regression (sigmoidal dose-response with variable slope) using GraphPad Prism V75.04 software (GraphPad Software, San Diego, Calif., USA).

T2 sequence (P07766 22-207 limits assumed): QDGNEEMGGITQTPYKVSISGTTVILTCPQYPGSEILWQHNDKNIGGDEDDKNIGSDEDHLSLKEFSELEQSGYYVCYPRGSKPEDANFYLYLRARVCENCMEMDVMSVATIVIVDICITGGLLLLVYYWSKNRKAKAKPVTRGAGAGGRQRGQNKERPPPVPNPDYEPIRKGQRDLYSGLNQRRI

Binder | EC50 (read off the curve) [mg/L]
B3 | ~0.06

Molecular target: T1, CD20 KDD mutant
Assay: flow cytometry, HEK293F transfectants, MFI mutant/MFI wt at 10 µg/mL
Description: (§3) As a secondary antibody, R-Phycoerythrin (PE)-conjugated goat-anti-human IgG F(ab′)₂ was used, as described supra. Next, cells were washed once in staining buffer, re-suspended in 150 μL staining buffer and analyzed on a flow cytometer (FACSCanto-720, Becton Dickinson, San Diego, Calif., USA) and 10,000 events per sample were acquired at high flow rate. Binding curves were analyzed using non-linear regression (sigmoidal dose-response with variable slope) using GraphPad Prism V75.04 software (GraphPad Software, San Diego, Calif., USA).
(§4) Numbers indicate the percentage of binding to the CD20 mutants, relative to binding to wild type CD20, at 10 μg/mL. The percentage of binding was calculated by the following formula: (MFI binding to CD20 mutant)/(MFI binding CD20 wt) × 100%

Binder | % of wt CD20 binding [%]
B3 | 54
B1 | 4
B4 | 67
B2 | 4

Molecular target: T3, CD20-AxP (human, UniProt P11836 1-297)
T3 construct: whole, on cells; Transiently expressed in HEK293F cells; also called AxP mutant; CD20 mutant (CD20-AxP)
T3 sequence (looked up): T1 sequence (looked up) with K159T, D163N, D166N, A170S, P172S
Assay: as above
Description: as §3, §4

Binder | % of wt CD20 binding [%]
B3 | 118
B1 | 103
B4 | 95
B2 | 98

Molecular target: T3, CD20-AxP
Assay: flow cytometry on HEK293F cells transiently expressing CD20-AxP (A170S/P172S); PE-conjugated goat anti-human IgG F(ab')2; MFI
Description: as §1, §2

Binder | EC50 (read off the curve) [mg/L]
B3 | ~0.3
B1 | ~0.2
B4 | ~0.2
B2 | ~0.2

Molecular target: T4, human CD20 (human, UniProt P11836 1-297)
T4 construct: whole, on cells; On Daudi and other human B cell lines, on human B cells in blood, or transiently expressed in HEK293F cells (construct pEE12.4CD20HS-GA); also called wild type CD20; WT CD20
T4 sequence (looked up): T1 sequence (looked up) with K159T, D163N, D166N
Assay: flow cytometry on HEK293F cells transiently expressing wild type CD20; PE-conjugated goat anti-human IgG F(ab')2; MFI
Description: as §1, §2

Binder | EC50 (read off the curve) [mg/L]
B3 | ~0.1
B1 | ~0.1
B4 | ~0.1
B2 | ~0.1

From patent US20200199231A1 (Genmab, published 2020)
